Measurements: patent US20250027068

Molecular target: pooled human IgG (human IgG1, 2, 3 and 4)

Row | Protein | Enzyme Activity Endpoint Assay (purified): Fab′2 [ng/µL] | Enzyme Activity Endpoint Assay (purified): Fc [ng/µL] | Enzyme Activity Endpoint Assay (purified): IgG [ng/µL] | Enzyme Activity Endpoint Assay (purified): scIgG [ng/µL] | Enzyme Activity Endpoint Assay: Fab′2 [ng/µL] | Enzyme Activity Endpoint Assay: Fc [ng/µL] | Enzyme Activity Endpoint Assay: IgG [ng/µL] | Enzyme Activity Endpoint Assay: scIgG [ng/µL] | Enzyme Activity Endpoint Assay (purified): Fab'2 [ng/µL]
1 | PRT-384 (protein) MVTSVWTKGVTPPTNFTYGEDVLHAPYVANQGWYDITKTFNGKDDLLCGAATAGNMLHWWFDQNKEQIENYLKKHPEKQKINFNGEQMFDVKEAIDTKDSQLDSKLFEYFKEKAFPNLSTKHLGVFPDHVIDMFINGYRLSLTNHGPTPVKRGSKDPRGGIFDAVFTRGDQSKLLTNRHDFKEKTLKEISDLIKQELTEGKALGISHTYANVRINHVINLWGADFDAEGNLEAIYVTDSDSNASIGMKKYFVGVNSNGKVAISAKEIEEDNIGAQVLGLFTLSTGQDIWNQTN | 365 | 0 | 1510 | 0 | 365 | 0 | 1510 | 0 | –
2 | PRT-392 (protein) MVTSVWTKGVTPPTNFTYGEDVLHAPYVANQGWYDITKTFNGKDDLLCGAATAGNMLHWWFDQNKEQIENYLKKHPEKQKINFNGEQMFDVKEAIDTKDSQLDSKLFEYFKEKAFPYLSTKHLGVFPDHVIDMFINGYRLSLTNHGPTPVKRGSKDPRGGIFDAVFTRGVQSKLLTNRHDFKEKTLKEISDLIKQELTEGKALGISHTYANVRINHVINLWGADFDAEGNLEAIYVTDSDSNASIGMKKYFVGVNSNGKVAISAKEIEEDNIGAQVLGLFTLSTGQDIWNQTN | 513 | 354 | 0 | 196 | 513 | 354 | 0 | 196 | –
3 | PRT-416 (protein) MTITSVWTKGVTPPTPEDFRYNNEDVLHAPYVANQGWYDITKTFDGKDNLLCGAATAGNMLHWWFDQNKEEIERYLKKHPEKQKIIFNNQELFDVKAAIDTKDSQTNSKLFNYFRDKAFPNLSARQLGVMPDLVLDMFINGYYLNLPKTQSTDVNRPYQDKDKRGGIFDAVFTRGDQTTLLTARHDLKNKGLNEISDLIKQELTEGKALALSHTYANVRINHVINLWGADFDAEGNLIAIYVTDSDANASIGMKKYFVGVNANGKVAISAKKIEGDNIGAQVLGLFTLSTGQDIWQKLS | – | – | – | – | 125 | 258 | 96 | 453 | –
4 | PRT-424 (protein) MTITSVWTKGVTPPTPEDFRYNNEDVLHAPYVANQGWYDITKTFDGKDNLLCGAATAGNMLHWWFDQNKEEIERYLKKHPEKQKIIFNNQELFDVKAAIDTKDSQTNSKLFNYFRDKAFPNLSARQLGVMPDLVLDMFINGYYLNLGKTQSTDVNRPYQDKDKRGGIFDAVFTRGDQTTLLTARHDLKNKGLNEISDLIKQELTEGKALALSHTYANVRINHVINLWGADFDAEGNLIAIYVTDSDANASIGMKKYFVGVNANGKVAISAKKIEGDNIGAQVLGLFTLSLGQDIWQKLS | – | – | – | – | 618 | 348 | 88 | 0 | –
5 | PRT-602 (protein) MANQEIRYSEVTPYHITSVWTKGVTPPANFTQGEDVFHAPYVANQGWYDITKTFNGKDDLLCGAATAGNMLHWWFDQNKDQIERYLEEHPEKQKINFNGEQMFDVKEAIDTKDSQTDSKLFEYFKEKAFPYLSTKHLGVFPDHVIDMFINGYRLSLTNHGPTPVKEGSKDPRGGIFDAVFTRGDQSKLLTSRHDFKEKTLKEISDLIKQELTEGKALGLSHTYANVRINHVINLWGADFDSEGNLKAIYVTDSDSNASIGMKKYYVGVNSAGKVAISAKEIEEDNIGAQVLGLFTLSTGQDIWNQTNLEHHHHHH | – | 375 | 0 | 212 | 543 | 375 | 0 | 212 | 543
6 | PRT-439 (protein) MSQTEDSESLQRLRDIEDFQAEKKKQNVVYTKWLDGVDVKDHDFRKIVDGNIAYYATPLLNGRGFYDINKDFNRDSDKCAAAVAANMFHYWLDRNRDNVDRFLRQNPEKHGIIELPDGQLKLSDFLNTYESDDGYRDKSKLFDFISNNFNGPVWTDKLLDNYINGYAYNYKYGRLIEDPTKNTSKINFFKEVFNEKILTNNHSIRNQNEFSVLLSEALYTGKAIGLSYGPAGLRHSLGHIISVWGADLDADGNVVAIYVTDSDDKKLTIGDERVGLKRYKISTDDEGRLRLTAYEETHNTGGQIRGLWTLDTGKQAWADYFDKTEQTGTDQAEQ | 179 | 191 | 325 | 528 | 179 | 191 | 325 | 528 | –
7 | PRT-442 (protein) MSQTEDSESLQRLRDIEDFQAEKKKQNVVYTKWLDGVDVKDHDFRKIVDGNIAYYATPLLNGRGFYDINKDFNRDNDKCAAAVAANMFHYWLDRNRDNVDRFLRQNPEKHGIIELPDGQLKLSDFLNTYESDDGYRDKSKLFDFISNNFNGPVWTDKLLDNYINGYAYNYKYGRTIEDPTKNTSKINFFKEVFNEKILTNNHSIRNQNEFSVLLSEALYTGKAIGLSYGPAGLRHSLGHIISVWGADLDADGNVVAIYVTDSDDKKLTIGDERVGLKRYKISTDDEGRLRLTAYEETHNTGGQIRGLWTLDTGKQAWADYFDKTEQTGTDQAEQ | – | – | – | – | 18 | 169 | 680 | 381 | –
8 | PRT-434 (protein) MSQTEDSESLQRLRDIEDFQAEKKKQNVVYTKWLDGVDVKDHDFRKIVDGNIAYYATPLLNGRGFYDINKDFNRDSDKCAAAVAANMFHYWLDRNRDNVDRFLRQNPEKHGIIELPDGQLKLSDFLNTYESDDGYRDKSKLFDFISNNFNGPVWTDKLLDNYINGYAYNYKYGRTIEDPTKNTSKINFFKEVFNEKILTNNHSIRNQNEFSVLLSEALYTGKAIGLSYGPAGLRHGLGHIISVWGADLDADGNVVAIYVTDSDDKKLTIGDERVGLKRYKISTDDEGRLRLTAYEETHNTGGQIRGLWTLDTGKQAWADYFDKTEQTGTDQAEQ | 567 | 314 | 0 | 234 | 567 | 314 | 0 | 234 | –
9 | PRT-433 (protein) MSQTEDSESLQRLRDIEDFQAEKKKQNVVYTKWLDGVDVKDHDFRKIVDGNIAYYATPLLNGRGFYDINKDFNRDSDKCAAAVAANMFHYWLDRNRDNVDRFLRQNPEKHGIIELPDGQLKLSDFLNTYESDDGYRDKSKLFDFISNNFNGPVWTDKLLDNYINGYAYNYKYGRTIEDPTKNTSKINFFKEVFNEKILTNNHSIRNQNEFSVLLIEALYTGKAIGLSYGPAGLRHSLGHIISVWGADLDADGNVVAIYVTDSDDKKLTIGDERVGLKRYKISTDDEGRLRLTAYEETHNTGGQIRGLWTLDTGKQAWADYFDKTEQTGTDQAEQ | 575 | 489 | 0 | 224 | 575 | 489 | 0 | 224 | –
10 | PRT-400 (protein) MVTSVWTKGVTPPADFTQGEDVFHAPYDANQGWYDITKTFNGKDDLLCGAATAGNMLHWWFDQNKEYIEAYLKKHPEKQKIMFGDQELLDVRKAINTKGSQKNSELFNYFRDKAFPNLSARRLGVMPDLVLDMFINGYYLNVTKTQTTDVNRTYQEKDKRGGIFDAVFTRGDQSKLLTSRHDFKEKGLKEISDLIKQELTEGKALGLSHTYANVRINHVINLWGADFDSDGNLKAIYVTDSDSNASIGMKKYFVGVNSAGKVAISAKEIKEDNIGAQVLGLFTLSTGQDIWNQTN | 556 | 333 | 176 | 0 | 556 | 333 | 176 | 0 | –
11 | PRT-408 (protein) MVTSVWTKGVTPPADFTQGEDVFHAPYVANQGWYDITKTFNGKDDLLCGAATAGNMLHWWFDQNKEYIEAYLKKHPEKQKIMFGDQELLDVRKAINTKGSQKNSELFNYFRDKAFPNLSARRLGVFPDLVLDMFINGYYLNVTKTQTTDVNRTYQEKDKRGGIFDAVFTRGDQSKLLTSRHDFKEKGLKEISDLIKQELTEGKALGLSHTYANVRINHVINLWGADFDSDGNLKAIYVTDSDSNASIGMKKYFVGVNSAGKVAISAKEIKEDNIGAQVLGLFTLSTGQDIWNQTN | – | – | – | – | 564 | 334 | 179 | 0 | –
12 | PRT-598 (protein) MANQEIRYSEETPSTITSVWTKGVTPPTDFIQNEDVLHAPYIANQGWYDITKTFNGKDDLLCGAATAGNMLHWWFDQNKEQIENYLKKHPEKQKINFNGEQMFDVKEAIDTKDSQTDSALFEYFKDKAFPYLSTKHLGVFPDHVIDMFINGYRLSLTNHGPTPVKRGTKDPRGGIFDAVFTRGDQSKLLTSRHDFKEKTLNEISDLIKQELTEGKALGLSHTYANVRINHVINLWGADFNAEGNLEAIYVTDSDSNASIGMKKYFVGVNSAGKVAISAKEIEGDNIGAQVLGLFTLSTGQDIWNQTNLEHHHHHH | – | 172 | 0 | 213 | 567 | 172 | 0 | 213 | 567
